Reference: US20200317768A1 (published 2020)

B1: MS_M103205H795-SG1/M103202L889-SK1 (antibody, human IgG1, kappa)
heavy: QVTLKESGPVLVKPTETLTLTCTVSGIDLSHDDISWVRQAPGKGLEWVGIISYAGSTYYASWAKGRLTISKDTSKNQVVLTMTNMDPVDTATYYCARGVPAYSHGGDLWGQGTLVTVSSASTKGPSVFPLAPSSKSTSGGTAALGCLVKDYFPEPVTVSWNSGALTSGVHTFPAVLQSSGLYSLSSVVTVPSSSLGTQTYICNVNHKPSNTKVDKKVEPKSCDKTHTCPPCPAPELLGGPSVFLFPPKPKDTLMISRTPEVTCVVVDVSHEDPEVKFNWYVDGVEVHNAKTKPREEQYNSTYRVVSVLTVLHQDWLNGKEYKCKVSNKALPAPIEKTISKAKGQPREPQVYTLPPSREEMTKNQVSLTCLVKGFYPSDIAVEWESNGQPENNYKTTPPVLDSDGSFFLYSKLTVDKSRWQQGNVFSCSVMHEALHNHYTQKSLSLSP
light: DIVMTQSPATLSLSPGERATLSCTSSQSVYHANWLSWFQQKPGQPPKLLIYWASTLAYGVPSRFSGSGSGTDFTLTISSLQPEDAATYYCAGGYGGGRYAFGQGTKVEIKRTVAAPSVFIFPPSDEQLKSGTASVVCLLNNFYPREAKVQWKVDNALQSGNSQESVTEQDSKDSTYSLSSTLTLSKADYEKHKVYACEVTHQGLSSPVTKSFNRGEC
notes: Parent antibody of the Fc variants; heavy chain constant region SG1, light chain M103202L889-SK1; also called MS1032LO06-SG1
B2: M103205H795-MY006/M103202L889-SK1 (antibody, human IgG1, kappa)
heavy: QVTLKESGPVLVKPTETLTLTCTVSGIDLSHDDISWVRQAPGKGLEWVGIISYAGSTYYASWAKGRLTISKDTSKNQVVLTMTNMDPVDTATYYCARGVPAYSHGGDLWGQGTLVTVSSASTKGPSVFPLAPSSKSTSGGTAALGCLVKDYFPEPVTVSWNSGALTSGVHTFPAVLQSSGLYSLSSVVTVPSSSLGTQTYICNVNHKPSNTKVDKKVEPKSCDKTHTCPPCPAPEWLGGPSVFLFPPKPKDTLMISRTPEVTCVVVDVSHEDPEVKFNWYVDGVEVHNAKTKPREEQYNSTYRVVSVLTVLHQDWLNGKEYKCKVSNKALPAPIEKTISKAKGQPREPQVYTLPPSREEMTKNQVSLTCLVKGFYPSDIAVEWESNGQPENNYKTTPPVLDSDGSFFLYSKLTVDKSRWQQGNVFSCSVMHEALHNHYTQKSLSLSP
light: DIVMTQSPATLSLSPGERATLSCTSSQSVYHANWLSWFQQKPGQPPKLLIYWASTLAYGVPSRFSGSGSGTDFTLTISSLQPEDAATYYCAGGYGGGRYAFGQGTKVEIKRTVAAPSVFIFPPSDEQLKSGTASVVCLLNNFYPREAKVQWKVDNALQSGNSQESVTEQDSKDSTYSLSSTLTLSKADYEKHKVYACEVTHQGLSSPVTKSFNRGEC
notes: Substitution put into M103205H795-SG1
B3: M103205H795-MY008/M103202L889-SK1 (antibody, human IgG1, kappa)
heavy: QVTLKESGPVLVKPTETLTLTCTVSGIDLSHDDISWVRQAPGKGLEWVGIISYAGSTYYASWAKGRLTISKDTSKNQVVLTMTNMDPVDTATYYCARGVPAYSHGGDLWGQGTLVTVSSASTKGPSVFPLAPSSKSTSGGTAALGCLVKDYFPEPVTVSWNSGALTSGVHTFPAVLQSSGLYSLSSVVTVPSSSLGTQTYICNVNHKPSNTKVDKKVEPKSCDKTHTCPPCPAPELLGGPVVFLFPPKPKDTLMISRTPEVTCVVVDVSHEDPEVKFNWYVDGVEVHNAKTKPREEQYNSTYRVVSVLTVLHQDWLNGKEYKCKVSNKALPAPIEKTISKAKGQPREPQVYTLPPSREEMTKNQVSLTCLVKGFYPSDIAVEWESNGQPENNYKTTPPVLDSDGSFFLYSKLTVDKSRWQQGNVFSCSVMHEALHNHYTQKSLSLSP
light: DIVMTQSPATLSLSPGERATLSCTSSQSVYHANWLSWFQQKPGQPPKLLIYWASTLAYGVPSRFSGSGSGTDFTLTISSLQPEDAATYYCAGGYGGGRYAFGQGTKVEIKRTVAAPSVFIFPPSDEQLKSGTASVVCLLNNFYPREAKVQWKVDNALQSGNSQESVTEQDSKDSTYSLSSTLTLSKADYEKHKVYACEVTHQGLSSPVTKSFNRGEC
notes: as for B2
B4: M103205H795-MY010/M103202L889-SK1 (antibody, human IgG1, kappa)
heavy: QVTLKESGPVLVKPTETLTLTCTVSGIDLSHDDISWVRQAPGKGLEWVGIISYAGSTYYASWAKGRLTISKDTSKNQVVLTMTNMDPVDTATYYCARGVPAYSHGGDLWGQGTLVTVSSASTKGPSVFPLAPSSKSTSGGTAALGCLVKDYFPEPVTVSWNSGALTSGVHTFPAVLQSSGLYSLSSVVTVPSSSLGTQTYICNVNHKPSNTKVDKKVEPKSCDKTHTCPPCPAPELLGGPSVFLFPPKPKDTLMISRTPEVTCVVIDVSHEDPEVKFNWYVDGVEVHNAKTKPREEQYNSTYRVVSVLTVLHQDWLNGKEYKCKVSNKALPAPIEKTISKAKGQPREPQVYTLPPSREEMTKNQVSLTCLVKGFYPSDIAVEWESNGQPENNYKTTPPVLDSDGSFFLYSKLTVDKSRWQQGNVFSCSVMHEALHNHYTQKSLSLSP
light: DIVMTQSPATLSLSPGERATLSCTSSQSVYHANWLSWFQQKPGQPPKLLIYWASTLAYGVPSRFSGSGSGTDFTLTISSLQPEDAATYYCAGGYGGGRYAFGQGTKVEIKRTVAAPSVFIFPPSDEQLKSGTASVVCLLNNFYPREAKVQWKVDNALQSGNSQESVTEQDSKDSTYSLSSTLTLSKADYEKHKVYACEVTHQGLSSPVTKSFNRGEC
notes: as for B2
B5: M103205H795-MY013/M103202L889-SK1 (antibody, human IgG1, kappa)
heavy: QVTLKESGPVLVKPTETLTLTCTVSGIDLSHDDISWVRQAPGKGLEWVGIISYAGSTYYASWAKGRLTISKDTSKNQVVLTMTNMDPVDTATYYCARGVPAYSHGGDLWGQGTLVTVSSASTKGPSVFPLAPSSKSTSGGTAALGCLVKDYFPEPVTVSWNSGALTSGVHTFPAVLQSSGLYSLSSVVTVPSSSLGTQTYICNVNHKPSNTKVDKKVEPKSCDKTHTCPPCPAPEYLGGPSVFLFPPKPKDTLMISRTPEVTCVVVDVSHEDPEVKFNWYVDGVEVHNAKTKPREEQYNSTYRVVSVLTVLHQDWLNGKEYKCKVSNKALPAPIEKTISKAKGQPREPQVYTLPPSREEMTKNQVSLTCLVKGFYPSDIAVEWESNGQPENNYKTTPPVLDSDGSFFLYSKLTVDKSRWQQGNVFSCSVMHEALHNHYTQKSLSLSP
light: DIVMTQSPATLSLSPGERATLSCTSSQSVYHANWLSWFQQKPGQPPKLLIYWASTLAYGVPSRFSGSGSGTDFTLTISSLQPEDAATYYCAGGYGGGRYAFGQGTKVEIKRTVAAPSVFIFPPSDEQLKSGTASVVCLLNNFYPREAKVQWKVDNALQSGNSQESVTEQDSKDSTYSLSSTLTLSKADYEKHKVYACEVTHQGLSSPVTKSFNRGEC
notes: as for B2
B6: M103205H795-MY014/M103202L889-SK1 (antibody, human IgG1, kappa)
heavy: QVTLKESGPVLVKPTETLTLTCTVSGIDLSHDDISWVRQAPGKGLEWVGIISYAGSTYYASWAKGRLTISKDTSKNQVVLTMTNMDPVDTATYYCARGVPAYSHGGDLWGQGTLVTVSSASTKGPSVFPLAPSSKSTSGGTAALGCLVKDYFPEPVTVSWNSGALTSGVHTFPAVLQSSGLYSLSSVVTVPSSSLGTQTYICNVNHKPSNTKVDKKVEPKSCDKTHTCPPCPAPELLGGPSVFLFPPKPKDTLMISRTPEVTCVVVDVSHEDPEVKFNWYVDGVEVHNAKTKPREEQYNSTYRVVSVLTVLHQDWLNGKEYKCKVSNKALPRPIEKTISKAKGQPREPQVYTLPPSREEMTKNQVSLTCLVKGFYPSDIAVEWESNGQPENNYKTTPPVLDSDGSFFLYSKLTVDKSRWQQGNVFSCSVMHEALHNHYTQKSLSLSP
light: DIVMTQSPATLSLSPGERATLSCTSSQSVYHANWLSWFQQKPGQPPKLLIYWASTLAYGVPSRFSGSGSGTDFTLTISSLQPEDAATYYCAGGYGGGRYAFGQGTKVEIKRTVAAPSVFIFPPSDEQLKSGTASVVCLLNNFYPREAKVQWKVDNALQSGNSQESVTEQDSKDSTYSLSSTLTLSKADYEKHKVYACEVTHQGLSSPVTKSFNRGEC
notes: as for B2

Legend:
Assay in all cases: SPR; KD of SG1 / KD of variant
[1] = target: T1, cynomolgus monkey FcγRIIa2 extracellular domain, His-tagged (cynomolgus monkey)
T1 construct: also called cyno FcγRIIa2; cynoFcgRIIa2
T1 chain: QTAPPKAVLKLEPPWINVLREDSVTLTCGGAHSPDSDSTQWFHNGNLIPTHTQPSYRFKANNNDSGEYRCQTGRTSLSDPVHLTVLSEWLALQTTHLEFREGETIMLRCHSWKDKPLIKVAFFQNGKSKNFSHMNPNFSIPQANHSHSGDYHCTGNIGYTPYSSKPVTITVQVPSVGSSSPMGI

[2] = target: T2, cynomolgus monkey FcγRIIa3 extracellular domain, His-tagged (cynomolgus monkey)
T2 construct: also called cyno FcγRIIa3; cynoFcgRIIa3
T2 chain: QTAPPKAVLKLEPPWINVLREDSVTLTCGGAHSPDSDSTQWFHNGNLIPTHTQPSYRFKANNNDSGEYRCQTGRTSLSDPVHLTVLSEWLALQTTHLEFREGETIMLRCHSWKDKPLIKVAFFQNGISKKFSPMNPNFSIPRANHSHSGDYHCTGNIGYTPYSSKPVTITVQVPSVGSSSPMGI

[3] = target: T3, cynomolgus monkey FcγRIIb extracellular domain, His-tagged (cynomolgus monkey)
T3 construct: also called cyno FcγRIIb; cynoFcγRIIb
T3 chain: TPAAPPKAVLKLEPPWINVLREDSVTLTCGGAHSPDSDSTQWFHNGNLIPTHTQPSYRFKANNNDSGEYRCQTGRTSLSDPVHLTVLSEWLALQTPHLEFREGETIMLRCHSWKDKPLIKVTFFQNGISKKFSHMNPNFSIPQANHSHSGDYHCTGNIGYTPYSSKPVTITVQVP

[4] = target: T4, cynomolgus monkey FcγRIIIaS extracellular domain, His-tagged (cynomolgus monkey, UniProt Q8SPW2 21-206 at identity 1.00))
T4 construct: also called cyno FcγRIIIaS; cynoFcγRIIIaS
T4 chain: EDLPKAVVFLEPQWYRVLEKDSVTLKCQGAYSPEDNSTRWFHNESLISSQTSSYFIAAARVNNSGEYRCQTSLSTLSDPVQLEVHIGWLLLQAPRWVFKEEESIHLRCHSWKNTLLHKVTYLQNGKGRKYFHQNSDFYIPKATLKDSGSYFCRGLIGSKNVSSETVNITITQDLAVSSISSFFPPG

[5] = target: T5, human FcγRIIaH extracellular domain, His-tagged (human, UniProt P12318 34-217)
T5 construct: also called human FcγRIIa (type H); FcgRIIaH
T5 sequence: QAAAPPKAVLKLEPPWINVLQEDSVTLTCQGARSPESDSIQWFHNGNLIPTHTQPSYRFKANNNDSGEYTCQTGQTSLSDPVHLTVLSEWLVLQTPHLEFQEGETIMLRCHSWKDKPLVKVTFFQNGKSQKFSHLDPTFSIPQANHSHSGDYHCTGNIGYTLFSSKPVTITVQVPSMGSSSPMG

[6] = target: T6, human FcγRIIaR extracellular domain, His-tagged (human, UniProt P12318 34-217)
T6 construct: also called human FcγRIIa (type R); FcgRIIaR
T6 chain: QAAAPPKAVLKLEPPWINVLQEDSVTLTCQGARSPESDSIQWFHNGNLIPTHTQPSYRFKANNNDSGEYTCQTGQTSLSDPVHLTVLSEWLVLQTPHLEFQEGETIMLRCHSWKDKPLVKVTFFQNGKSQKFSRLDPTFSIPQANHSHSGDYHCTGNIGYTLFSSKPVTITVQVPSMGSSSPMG

[7] = target: T7, human FcγRIIb extracellular domain, His-tagged (human, UniProt P31994 43-217)
T7 construct: also called FcgRIIb (human)
T7 sequence: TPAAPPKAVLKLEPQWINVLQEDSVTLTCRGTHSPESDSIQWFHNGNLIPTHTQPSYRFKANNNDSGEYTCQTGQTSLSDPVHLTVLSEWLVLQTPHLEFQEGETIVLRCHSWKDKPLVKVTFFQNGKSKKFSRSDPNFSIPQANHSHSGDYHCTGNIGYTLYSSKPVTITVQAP

[8] = target: T8, human FcγRIIIaV extracellular domain, His-tagged (human, UniProt P08637 17-208)
T8 construct: also called FcgRIIIaV
T8 sequence (P08637 17-208 F176V): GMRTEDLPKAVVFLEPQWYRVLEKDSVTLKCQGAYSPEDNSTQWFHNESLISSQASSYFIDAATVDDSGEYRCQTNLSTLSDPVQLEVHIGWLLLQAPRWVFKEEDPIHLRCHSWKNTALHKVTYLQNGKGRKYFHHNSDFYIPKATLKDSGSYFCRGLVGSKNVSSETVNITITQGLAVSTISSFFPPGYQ

| Binder | KD fold (SG1 = 1) [1] | KD fold (SG1 = 1) [2] | KD fold (SG1 = 1) [3] | KD fold (SG1 = 1) [4] | KD fold (SG1 = 1) [5] | KD fold (SG1 = 1) [6] | KD fold (SG1 = 1) [7] | KD fold (SG1 = 1) [8] |
| --- | --- | --- | --- | --- | --- | --- | --- | --- |
| B1 | 1 fold | 1 fold | 1 fold | 1 fold | 1 fold | 1 fold | 1 fold | 1 fold |
| B2 | 2.7 fold | 4.7 fold | 2 fold | 1.13 fold | 0.5 fold | 0.6 fold | 2 fold | 1.12 fold |
| B3 | 1.4 fold | 0.7 fold | 1.1 fold | 0.97 fold | 0.4 fold | 0.6 fold | 1.8 fold | 1.29 fold |
| B4 | 1 fold | 1.2 fold | 0.5 fold | 1.64 fold | 0.6 fold | 0.6 fold | 0.9 fold | 3.68 fold |
| B5 | 1.1 fold | 0.3 fold | 0.9 fold | 1.09 fold | 0.3 fold | 0.2 fold | 1.2 fold | 1.98 fold |
| B6 | 2 fold | 1.4 fold | 1.2 fold | 0.9 fold | 1.3 fold | 1.1 fold | 1 fold | 1.17 fold |
